This is an account of results in PMC11564776, “Enzyme stabilisation due to incorporation of a fluorinated non-natural amino acid at the protein surface” (Scientific Reports, 2024).

The data set deals with the molecule itself. The experiment in a line: SEC; Zorbax-GF250 column, 1 mL/min, 200 mM sodium phosphate pH 7.0, column at room temperature; holo-TK samples stored at 4 °C or heated 15 min at 21 °C or 50 °C; homodimer and monomer peaks combined as 'native' because dilution during SEC can cause partial dissociation to monomer. For orientation: SEC sorts molecules by how far they enter the pores of the column.

B1: wild-type E. coli transketolase (enzyme)
chain: SSRKELANAIRALSMDAVQKAKSGHPGAPMGMADIAEVLWRDFLKHNPQNPSWADRDRFVLSNGHGSMLIYSLLHLTGYDLPMEELKNFRQLHSKTPGHPEVGYTAGVETTTGPLGQGIANAVGMAIAEKTLAAQFNRPGHDIVDHYTYAFMGDGCMMEGISHEVCSLAGTLKLGKLIAFYDDNGISIDGHVEGWFTDDTAMRFEAYGWHVIRDIDGHDAASIKRAVEEARAVTDKPSLLMCKTIIGFGSPNKAGTHDSHGAPLGDAEIALTREQLGWKYAPFEIPSEIYAQWDAKEAGQAKESAWNEKFAAYAKAYPQEAAEFTRRMKGEMPSDFDAKAKEFIAKLQANPAKIASRKASQNAIEAFGPLLPEFLGGSADLAPSNLTLWSGSKAINEDAAGNYIHYGVREFGMTAIANGISLHGGFLPYTSTFLMFVEYARNAVRMAALMKQRQVMVYTHDSIGLGEDGPTHQPVEQVASLRVTPNMSTWRPCDQVESAVAWKYGVERQDGPTALILSRQNLAQQERTEEQLANIARGGYVLKDCAGQPELIFIATGSEVELAVAAYEKLTAEGVKARVVSMPSTDAFDKQDAAYRESVLPKAVTARVAVEAGIADYWYKYVGLNGAIVGMTTFGESAPAELLFEEFGFTVDNVVAKAKELL
notes: transketolase (TK) of E. coli, wild-type gene in plasmid pQR791; the introduction gives the domains as residues 1-322 (PP), 323-539 (Pyr) and 540-663 (C-terminal); Used as holo-TK with ThDP and MgCl2; also called WT TK; WT-TK; source: E. coli XL-10-Gold with plasmid pQR791, purified (Ni-NTA)
On to B1, for which the binding result is “binds”.
